Measured values: the domain aggregation screens of Martell et al. (2025)

Assay: soluble fraction after stress (log2 fold change); higher = more stays soluble; pooled small domains, quantitative proteomics
Details: stress: 75 degC
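Note: 20 min heating vs room temperature control held 20 min.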

**Q.** For “HMSSEPYISLPRGAAHDAYPLSTKAVAAQLGMSEVWLANLRSKGKGPRYVRVGTRVFYSPEDVAQWRRAT”, which “soluble fraction (log2)” value is on record?
**A.** -1.18

**Q.** For “HMSSESIIIKKLIEEFIHNENKYSPLSDEKLSYLLKNKGFSVARRTVAKYRDELGILSTRERKIKI”, which “soluble fraction (log2)” value is on record?
**A.** -1.76

**Q.** For “HMSSEYARFFSGNYYEVLGVAKNASYDEIKAAWKKLVKEYHPDLHPQRQEEFTKIIQKINEAYEYFKKMH”, which “soluble fraction (log2)” value is on record?
**A.** -0.583

**Q.** With “HMSSFFLIDVSQVRIGMYIQLDVGWMRHPFPVNSFRITNQEQLDTLRSLNLAQVRWSPAKSDL” as the sequence, how does the “soluble fraction (log2)” value read?
**A.** -3.64

**Q.** Which “soluble fraction (log2)” value does the source give for “HMSSFIEAIKQSGTDSLDVIMKNGRVYRYVGIDADRLGYLLEPHQQKLSLEESIGRFYIDYIKGIYEAIE” here?
**A.** -1.47

**Q.** With “HMSSGNLESLLNKLHNEDYFVRLDAVKALGALGDPGAIDYLIEMLSENGIMRGWVANSLAALGEAQWKKII” as the sequence, how does the “soluble fraction (log2)” value read?
**A.** -2.22

**Q.** Which “soluble fraction (log2)” value does the source give for “HMSSHSAEAVRHRIKSMIDHEARDGDVLSDDRIVELLNQAGIDIARRTVAKYREALRIPSSVERKRRLKA” here?
**A.** -0.163

**Q.** With “HMSSKRDQFIVLGQEILEKMFKNEGLEFSEKGLLAVMPNFEAESINDIYAKVGEGLISGWDVMKAVYPAY” as the sequence, how does the “soluble fraction (log2)” value read?
**A.** -0.311

**Q.** For “HMSSKSLAALSPQEYRLLPLVAEGKTNKEIASALALSDKTVKNYLANIFSKLGITRRTQAATLYARAL”, which “soluble fraction (log2)” value is on record?
**A.** -0.338

**Q.** For “HMSSKYLKIYNDIVGKIDSGIFEANTKLPSESQLMDEYNVSRYTVRKSLNLLEQNGYIEKSKGKGSFVLDM”, which “soluble fraction (log2)” value is on record?
**A.** -1

**Q.** For “HMSSLQFVTLTLMEGHAWVGREIQELLMPPQMRIALIRRGDSQVIPKGSTILESADELILSAIEYQG”, which “soluble fraction (log2)” value is on record?
**A.** -4.48

**Q.** With “HMSSLREQVADALRAHLVSGRMRPGVLYSAPKLAAEFGVSATPVREAMLDLVSEGLVDVVRNKGFRVT” as the sequence, how does the “soluble fraction (log2)” value read?
**A.** -0.597

**Q.** With “HMSSPPNPQLAKRYISYSVDDIARLFGIHRHTVREWIKRGLPVIDQQRPLLVQGADLAEFLRKRRA” as the sequence, how does the “soluble fraction (log2)” value read?
**A.** -0.948

**Q.** With “HMSSPVIQINTRNDGWIIKLLQPAVEKDVLEGYLADVGLKLQSQMMEKILAAPAGTEFHIKRGSNILTE” as the sequence, how does the “soluble fraction (log2)” value read?
**A.** -0.291

**Q.** Which “soluble fraction (log2)” value does the source give for “HMSSQADEEALFKLLAANPYSDEQLEEIRIAIGSGIAYKDIIRIADIGNTAERMKQLRLEFTKDTAN” here?
**A.** 0.173

**Q.** For “HMSSQGSLEKGYSALLDGRLDDAALAYGAALAANPMERDALLGLAYVAHSKGRREEAQALYRKVLR”, which “soluble fraction (log2)” value is on record?
**A.** -0.303

**Q.** For “HMSSSTFVGRVAVITIGEARQNSPAEARFKDRHGTTHYVMVEPMEDVVFKQGDKVLLVESAGATFKVIEPA”, which “soluble fraction (log2)” value is on record?
**A.** -1.58

**Q.** Which “soluble fraction (log2)” value does the source give for “HMSSTSISFNDFQKYWLSNDIKSFQLREDKMTVQGSLKNGTAYETVVPSERLFQFIGQHPKD” here?
**A.** 0.863

**Q.** With “HMSSVDLLSERERQVLARISRGMSNEEIAAELAITPRTVRNHLANIYGKIDVHSRAEAVVWARERGIT” as the sequence, how does the “soluble fraction (log2)” value read?
**A.** -0.362

**Q.** With “HMSSVEQAILETLSKEHSHLTSLQVFEEIRGRLPAVNQSTVYRALERLVEQGVVSVSDMGTHAAVYE” as the sequence, how does the “soluble fraction (log2)” value read?
**A.** -0.197

**Q.** For “HMSSVMMPDLTGESAIVAMERLQQLGLLPKVEEVDSYREPGIVLEQLPRAGEKIKRGRIAILKVSS”, which “soluble fraction (log2)” value is on record?
**A.** -0.0579

**Q.** Which “soluble fraction (log2)” value does the source give for “HMSSVTGMERFLSSGAVKGIGKTMAARIVEHFGTETMTVLESFPERLAEVPGIGAKKAEAIGQSYSEISD” here?
**A.** 0.158

**Q.** For “HMSSVVARRARIATLVVETSVASQEELGRLLADEGITVTQATLSRDLDALGAVKVLSADGGTRYRIPGQ”, which “soluble fraction (log2)” value is on record?
**A.** -1.87

**Q.** For “HMSSVVVARTWTDTTGDFKVEAELLGVEGGLVRLKKEDGTVLSVPIAKLSTADRTFLQENQP”, which “soluble fraction (log2)” value is on record?
**A.** 0.00842

**Q.** With “HMSSWEDNFSYWIRNVAETLDKDLLNVANSKLEKIIINAALDQTNGKKNEAAILLGLGRNTLAKKIKELG” as the sequence, how does the “soluble fraction (log2)” value read?
**A.** -0.799

**Q.** Which “soluble fraction (log2)” value does the source give for “HMSSWEEQLKIWAKNELASGNTDILARATVSFEQILIEAALTHTGGRKKTAAELLGWGRNTLTRKIKELHI” here?
**A.** 0.0904

**Q.** Which “soluble fraction (log2)” value does the source give for “HMSSWEVLAEPIQTVMRRYGVPGAYEKLKEVTRGKSLTAEALHALIRSLDIPQADKERLLALTPAAWA” here?
**A.** -1.34

**Q.** With “HMSSYAEVMERSKYLQLHKYKIWKSETDGFWRTYYLNEQGKRKMKKLKHSEDMIDFVIEYVQNNE” as the sequence, how does the “soluble fraction (log2)” value read?
**A.** -2.17

**Q.** Which “soluble fraction (log2)” value does the source give for “HMSTDDILSSITALRLASVQFQLGQFDPALDSLKLVKEQAWSGAKNILAGDIQLAKGDKEAAKASYQQAQQ” here?
**A.** -0.422

**Q.** For “HMSTDIPFNIFSQKWNADEIDSIVVENNKIEGKTKDNKKFSTYAPDELLTSLMENHKNPNVIVEFRAP”, which “soluble fraction (log2)” value is on record?
**A.** 0.576

**Q.** For “HMSTDKIDIVSSAILSSLKDNDGFIGLTDKSPPPEIYTAFRVSKKVFKQAIGALYKQRRITLESSGIRLIS”, which “soluble fraction (log2)” value is on record?
**A.** -0.288

**Q.** For “HMSTDSTQLLGFNKTGEELPIYKEANEENKFAEIPQNVYVKNFGQNGEFTKIKYLDQEGYVKTAGLK”, which “soluble fraction (log2)” value is on record?
**A.** 0.955

**Q.** Which “soluble fraction (log2)” value does the source give for “HMSTEEYDRGYEQGLEEAAKADDAWVANLIKIYSQNTPESMPETMKGRLDAFLYEQQRRAQSVPEM” here?
**A.** 0.918

**Q.** Which “soluble fraction (log2)” value does the source give for “HMSTIAAMADPRAWALEMLGFPPGTVKPSKREIQVRFRESLRDVHPDHGGDSRTASASINDLSEARRVLLS” here?
**A.** -0.36

**Q.** Which “soluble fraction (log2)” value does the source give for “HMSTLGIRIKHYRTDSNLTQKELAGLINVKRDALANWETDRALPDVMNLKKLAEVFQVSTDELLQV” here?
**A.** -1.02

**Q.** Which “soluble fraction (log2)” value does the source give for “HMSTLTGTQRAAVVLMQMSPPNAARVMAQFTDAEAEEIAAEIVRLRKVDPEVAEQIMKDFHEAALSS” here?
**A.** -0.226

**Q.** With “HMSTLTLTSGTYAVGENIKAGKYTIMGSGSIAISSSGKARVNSNLTADRKDYVLNDDETIKIKGKAQFIPI” as the sequence, how does the “soluble fraction (log2)” value read?
**A.** -0.315

**Q.** Which “soluble fraction (log2)” value does the source give for “HMSTMKIVRVKSNLKIGQEITSKDIEVVEVGAYNMPSEVMKNSEDVIGKYASAEMIKGEYVLAAKISDTP” here?
**A.** 0.151

**Q.** With “HMSTMNRLPRHEQILKLVRANGFMPIEELARLLDVTPQTIRRDINTLSEENLLRRFHGGAALGPSVE” as the sequence, how does the “soluble fraction (log2)” value read?
**A.** -0.371

**Q.** With “HMSTMTGTVDTPGASLNVRTGAWGPIVGQLAHGSKVTIIGSSGDWFKISYNGATRYVHKNYVNTT” as the sequence, how does the “soluble fraction (log2)” value read?
**A.** -0.683

**Q.** For “HMSTMVEIPNVVGMTIKEAKEALGNLGLSISKISGSNEDSAIVTEVSPAPGSSVKRDESITLVGQPK”, which “soluble fraction (log2)” value is on record?
**A.** 0.683

**Q.** Which “soluble fraction (log2)” value does the source give for “HMSTPAKVTPTNPIVKQLFNAAETQIKNKDIQNAIASYEKADTLTTDEKVKQYIHYQLSTLKDDN” here?
**A.** -0.0812

**Q.** With “HMSTPERQEVLDILKRQGEMTPLQIAGQISRTSKSVSNILSKLKREGFVANGAKYGSWVSTES” as the sequence, how does the “soluble fraction (log2)” value read?
**A.** -0.0675

**Q.** For “HMSTPTVDTKTKLDLYNLLYKKDLNYLDAYNFVLDNFGSDNIDIMFKMLGLDFTNWVIENKPE”, which “soluble fraction (log2)” value is on record?
**A.** 0.139

**Q.** Which “soluble fraction (log2)” value does the source give for “HMSTQYKTGHYKTTDALNLRASYSTSSNVLLTIPKGKTIVVTRVHNNEWGQVEYNGKTGWIYLEYTAYTES” here?
**A.** -1.85

**Q.** For “HMSTSAAELLRTARQQAGMSQSAVAELAKTSQSAIAMYEAGNREPSLPVLQRLLAATGHQLSLSVLP”, which “soluble fraction (log2)” value is on record?
**A.** -0.337

**Q.** For “HMSTTILSFQNRVVIETLHNEGRSLRYIANYLGFSKATIFNELHRLNSEYRAELAQADFERKVSQR”, which “soluble fraction (log2)” value is on record?
**A.** -3.06

**Q.** Which “soluble fraction (log2)” value does the source give for “HMSTVAETVYNEIRDDILYGELQPGVKLKLEALRERYSVGVNTLREVLNRLVASGFVFVEGQKGFRVV” here?
**A.** 0.365

**Q.** With “HMSTVEKDSELGGNFRIASYPTGKGQISEAIRSMIVRAKQVGVNIRLNTEATEEPLRALAPNAVILATG” as the sequence, how does the “soluble fraction (log2)” value read?
**A.** 0.188

**Q.** With “HMSTVELPVQINGKVRGRITVPANAGQEDVKQAALADSKVQRYIEGASIRKVIVVPRKLVNIVV” as the sequence, how does the “soluble fraction (log2)” value read?
**A.** -0.215

**Q.** Which “soluble fraction (log2)” value does the source give for “HMSTVTGLINYLSSGLIKGVGEATARKLVDHFGLDVLDIIQFNPQRLLEVDGIGEARAEMIASSFSEQK” here?
**A.** -1.21

**Q.** With “HMSVDIIPGKADQKVRLIHDPAIVGVTTGGVKTAGPHTLIQIELGPNERPYKRLSLLELIPEG” as the sequence, how does the “soluble fraction (log2)” value read?
**A.** -0.347

**Q.** Which “soluble fraction (log2)” value does the source give for “HMSVDVGMQLRKLREERKISMRELARLSGLSANALSMIERGLTSPSVSTLNKLAGALEVPITAFFRI” here?
**A.** -1.35

**Q.** Which “soluble fraction (log2)” value does the source give for “HMSVEVPNLIGKTLDQVDIDLKSLDLSFVILDSARYNSSFKPLSVIDHQPISGAKVKVNRKIYLTINPS” here?
**A.** -0.411

**Q.** With “HMSVKIELNENEQAIFTAVQKVNEAVLPELRAQFSDMSNKAWDNSVKMLTKNNLLKVSKEGEILYIRM” as the sequence, how does the “soluble fraction (log2)” value read?
**A.** -1.22
